The text below walks through data of patent publication US10081665B2, “Peptides and combination of peptides for use in immunotherapy against various tumors” (immatics biotechnologies GmbH, priority 2015, dated 2018).

The target of this assay is HLA-A*02:01 (Homo sapiens, UniProt P04439, D140Y/D185E/D98H/E176V/E277Q/G131W/G231S/I119V/I121R/I166T/I218V/L300P/L318F/N151K/N90K/P208A/P217A/Q86G/Q94H/R138H/R169H/T345S). The assay is described as follows: MHC binding assay (UV-ligand exchange, beta2m ELISA). As to conditions: binding to HLA-A*02:01, β2m ELISA. The text has this:
Candidate peptides for T cell based therapies according to the present invention were further tested for their MHC binding capacity (affinity). The individual peptide-MHC complexes were produced by UV-ligand exchange, where a UV-sensitive peptide is cleaved upon UV-irradiation, and exchanged with the peptide of interest as analyzed. Only peptide candidates that can effectively bind and stabilize the peptide-receptive MHC molecules prevent dissociation of the MHC complexes. To determine the yield of the exchange reaction, an ELISA was performed based on the detection of the light chain (β2m) of stabilized MHC complexes. The assay was performed as generally described in Rodenko et al. (Rodenko et al., 2006).
96 well MAXISorp plates (NUNC) were coated over night with 2 ug/ml streptavidin in PBS at room temperature, washed 4× and blocked for 1 h at 37° C. in 2% BSA containing blocking buffer. Refolded HLA-A*02:01/MLA-001 monomers served as standards, covering the range of 15-500 ng/ml. Peptide-MHC monomers of the UV-exchange reaction were diluted 100 fold in blocking buffer. Samples were incubated for 1 h at 37° C., washed four times, incubated with 2 ug/ml HRP conjugated anti-82m for 1 h at 37° C., washed again and detected with TMB solution that is stopped with […]. Absorption was measured at 450 nm. Candidate peptides that show a high exchange yield (preferably higher than 50%, most preferred higher than 75%) are generally preferred for a generation and production of antibodies or fragments thereof, and/or T cell receptors or fragments thereof, as they show sufficient avidity to the MHC molecules and prevent dissociation of the MHC complexes.
For orientation: ELISA stands for enzyme-linked immunosorbent assay.
For “275 (AVPPPPSSV; listed as Homo sapiens) [compound 275]”, the “Peptide exchange (MHC class I binding score, peptide exchange yield)” value (from here on “Peptide exchange”) is listed as “++ (≥20% = ++)”.

On to “12 (RLLDPKTIFL; listed as Homo sapiens) [compound 12]”, for which the “Peptide exchange” value is on record as “+++ (≥50 = +++)”.

In the case of “113 (FLFLKEVKV; listed as Homo sapiens) [compound 113]”, the “Peptide exchange” value is on record as “++ (≥20% = ++)”.

On to “251 (LLWGNLPEI; listed as Homo sapiens) [compound 251]”, for which the “Peptide exchange” value is “+++ (≥50 = +++)”.

Take “223 (ALHPVQFYL; listed as Homo sapiens) [compound 223]”: the “Peptide exchange” value is on record as “+++ (≥50 = +++)”.

With “30 (IITEVITRL; listed as Homo sapiens) [compound 30]”, the “Peptide exchange” value is recorded as “+++ (≥50 = +++)”.

Take “204 (SEWGSPHAAVP; listed as Homo sapiens) [compound 204]”: the “Peptide exchange” value is “+++ (≥50 = +++)”.

Take “237 (ALLEQTGDMSL; listed as Homo sapiens) [compound 237]”: the “Peptide exchange” value is “+++ (≥50 = +++)”.

For the substance “110 (QIQGQVSEV; listed as Homo sapiens) [compound 110]”, the “Peptide exchange” value was “++ (≥20% = ++)”.

On to “261 (GLAALAVHL; listed as Homo sapiens) [compound 261]”, for which the “Peptide exchange” value was “+++ (≥50 = +++)”.

In the case of “191 (AAIEIFEKV; listed as Homo sapiens) [compound 191]”, the “Peptide exchange” value is given as “+++ (≥50 = +++)”.

Regarding “171 (LLLLDVPTA; listed as Homo sapiens) [compound 171]”, the “Peptide exchange” value is given as “++ (≥20% = ++)”.

For the substance “162 (GLLGNLLTSL; listed as Homo sapiens) [compound 162]”, the “Peptide exchange” value is given as “+++ (≥50 = +++)”.

On to “65 (SLSEKSPEV; listed as Homo sapiens) [compound 65]”, for which the “Peptide exchange” value is listed as “++ (≥20% = ++)”.

Regarding “98 (FVQEKIPEL; listed as Homo sapiens) [compound 98]”, the “Peptide exchange” value is recorded as “+++ (≥50 = +++)”.

For “208 (HLNNDRNPL; listed as Homo sapiens) [compound 208]”, the “Peptide exchange” value was “++ (≥20% = ++)”.

Consider “256 (FLNDIFERI; listed as Homo sapiens) [compound 256]”, for which the “Peptide exchange” value is on record as “+++ (≥50 = +++)”.

For “165 (SLLDYEVSI; listed as Homo sapiens) [compound 165]”, the “Peptide exchange” value was “+++ (≥50 = +++)”.

For “84 (FLLEREQLL; listed as Homo sapiens) [compound 84]”, the “Peptide exchange” value is “++++ (≥75% = ++++)”.

In the case of “83 (GLLENSPHL; listed as Homo sapiens) [compound 83]”, the “Peptide exchange” value was “++ (≥20% = ++)”.

With “58 (HLLGEGAFAQV; listed as Homo sapiens) [compound 58]”, the “Peptide exchange” value is listed as “+++ (≥50 = +++)”.

Consider “280 (HLWGHALFL; listed as Homo sapiens) [compound 280]”, for which the “Peptide exchange” value was “+++ (≥50 = +++)”.

“124 (ALLLRLFTI; listed as Homo sapiens) [compound 124]”: the “Peptide exchange” value is on record as “++ (≥20% = ++)”.

On to “36 (TVLQELINV; listed as Homo sapiens) [compound 36]”, for which the “Peptide exchange” value is listed as “+++ (≥50 = +++)”.

For the substance “243 (GLAEFQENV; listed as Homo sapiens) [compound 243]”, the “Peptide exchange” value was “++ (≥20% = ++)”.

Turning to “230 (KLLNMIFSI; listed as Homo sapiens) [compound 230]”, the “Peptide exchange” value is listed as “+++ (≥50 = +++)”.

As to “90 (AILNVDEKNQV; listed as Homo sapiens) [compound 90]”, the “Peptide exchange” value is on record as “++ (≥20% = ++)”.

Turning to “92 (RLFEEVLGV; listed as Homo sapiens) [compound 92]”, the “Peptide exchange” value was “++++ (≥75% = ++++)”.

On to “222 (LLTGVFAQL; listed as Homo sapiens) [compound 222]”, for which the “Peptide exchange” value is “++ (≥20% = ++)”.

“249 (YLYQILQGI; listed as Homo sapiens) [compound 249]”: the “Peptide exchange” value was “+++ (≥50 = +++)”.

“281 (LLLESDPKVYSL; listed as Homo sapiens) [compound 281]”: the “Peptide exchange” value was “++ (≥20% = ++)”.

Consider “106 (VLLGSVVIFA; listed as Homo sapiens) [compound 106]”, for which the “Peptide exchange” value is on record as “++ (≥20% = ++)”.

On to “59 (ALADGIKSFLL; listed as Homo sapiens) [compound 59]”, for which the “Peptide exchange” value is on record as “+++ (≥50 = +++)”.

For “188 (VLGEEQEGV; listed as Homo sapiens) [compound 188]”, the “Peptide exchange” value is recorded as “++ (≥20% = ++)”.

In the case of “225 (FLPQPVPLSV; listed as Homo sapiens) [compound 225]”, the “Peptide exchange” value is on record as “+++ (≥50 = +++)”.

As to “151 (DISKRIQSL; listed as Homo sapiens) [compound 151]”, the “Peptide exchange” value is reported as “++ (≥20% = ++)”.

As to “163 (GLEERLYTA; listed as Homo sapiens) [compound 163]”, the “Peptide exchange” value is recorded as “++ (≥20% = ++)”.

In the case of “250 (LMQDSRLYL; listed as Homo sapiens) [compound 250]”, the “Peptide exchange” value was “+++ (≥50 = +++)”.

Take “108 (FIANLPPELKA; listed as Homo sapiens) [compound 108]”: the “Peptide exchange” value is listed as “+++ (≥50 = +++)”.

As to “193 (ALFHMNILL; listed as Homo sapiens) [compound 193]”, the “Peptide exchange” value is on record as “+++ (≥50 = +++)”.

“62 (SLVENIHVL; listed as Homo sapiens) [compound 62]”: the “Peptide exchange” value was “+++ (≥50 = +++)”.

In the case of “228 (SLLELDGINLRL; listed as Homo sapiens) [compound 228]”, the “Peptide exchange” value was “+++ (≥50 = +++)”.

As for “269 (GLLDCPIFL; listed as Homo sapiens) [compound 269]”, the “Peptide exchange” value is “++++ (≥75% = ++++)”.

Take “215 (QIADIVTSV; listed as Homo sapiens) [compound 215]”: the “Peptide exchange” value is “++ (≥20% = ++)”.

With “239 (VIIKGLEEITV; listed as Homo sapiens) [compound 239]”, the “Peptide exchange” value was “+++ (≥50 = +++)”.

As to “141 (NIDINNNEL; listed as Homo sapiens) [compound 141]”, the “Peptide exchange” value was “++ (≥20% = ++)”.

For “47 (GLNGFNVLL; listed as Homo sapiens) [compound 47]”, the “Peptide exchange” value is “+++ (≥50 = +++)”.

Regarding “133 (FLDGRPLTL; listed as Homo sapiens) [compound 133]”, the “Peptide exchange” value is “++ (≥20% = ++)”.

Consider “57 (TLYPGRFDYV; listed as Homo sapiens) [compound 57]”, for which the “Peptide exchange” value was “++ (≥20% = ++)”.

Take “51 (LDSEALLTL; listed as Homo sapiens) [compound 51]”: the “Peptide exchange” value was “++ (≥20% = ++)”.

Turning to “23 (ALLSPLSLA; listed as Homo sapiens) [compound 23]”, the “Peptide exchange” value is on record as “+++ (≥50 = +++)”.

As to “273 (SLNKQIETV; listed as Homo sapiens) [compound 273]”, the “Peptide exchange” value is reported as “++ (≥20% = ++)”.

Consider “103 (YLADTVQKL; listed as Homo sapiens) [compound 103]”, for which the “Peptide exchange” value is “++ (≥20% = ++)”.

“184 (ALDSTIAHL; listed as Homo sapiens) [compound 184]”: the “Peptide exchange” value is reported as “++ (≥20% = ++)”.

For “107 (RVLPGQAVTGV; listed as Homo sapiens) [compound 107]”, the “Peptide exchange” value is on record as “++ (≥20% = ++)”.

“179 (TLGEIIKGV; listed as Homo sapiens) [compound 179]”: the “Peptide exchange” value is listed as “+++ (≥50 = +++)”.

As for “13 (RLHDENILL; listed as Homo sapiens) [compound 13]”, the “Peptide exchange” value is listed as “+++ (≥50 = +++)”.
